Results from PMC6886308, “NADP(H) allosterically regulates the interaction between ferredoxin and ferredoxin‐NADP^+ reductase” (FEBS Open Bio, 2019).
Changes are numbered by the printed parent chain. Numbers in names are those of the source.

Legend:
maize leaf FNR (L‐FNR) = target: T1, maize leaf FNR (L‐FNR) (Zea mays, UniProt Q9SLP6); assay: ITC of Fd I binding to FNR in presence of ligand; Fd-affinity chromatography; details: 0-500 μM NADP+ (ITC); 50 mM Tris/HCl, pH 7.5; 298 K; allosteric on Fd binding
T1 construct: gene L-FNRI; recombinant mature leaf FNR, FAD flavoprotein, C-terminal Tyr314
T1 sequence (Q9SLP6 42-355): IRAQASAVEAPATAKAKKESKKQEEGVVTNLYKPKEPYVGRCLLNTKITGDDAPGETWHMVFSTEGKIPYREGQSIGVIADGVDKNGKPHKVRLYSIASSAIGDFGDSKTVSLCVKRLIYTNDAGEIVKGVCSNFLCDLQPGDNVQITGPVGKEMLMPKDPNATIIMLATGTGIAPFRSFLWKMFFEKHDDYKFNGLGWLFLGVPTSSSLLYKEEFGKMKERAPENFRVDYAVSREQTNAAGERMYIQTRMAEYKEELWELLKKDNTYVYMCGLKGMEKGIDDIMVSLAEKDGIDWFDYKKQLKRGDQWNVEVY

[1] = target: maize leaf ferredoxin-NADP+ reductase R235Q (maize)
[2] = target: maize leaf ferredoxin-NADP+ reductase R244Q (maize)
[3] = target: maize leaf ferredoxin-NADP+ reductase Y314S (maize)
[4] = target: maize leaf ferredoxin-NADP+ reductase, wild-type (maize)
[5] = target: maize leaf ferredoxin-NADP+ reductase R235Q (maize); assay: ITC; 500 uM Fd I in the syringe titrated into 50 uM L-FNR in the cell; 50 mM Tris/HCl pH 7.5, no NaCl, 298 K; one set of independent binding sites; 0 uM NADP+
[6] = target: maize leaf ferredoxin-NADP+ reductase R244Q (maize); assay: as above
[7] = target: maize leaf ferredoxin-NADP+ reductase Y314S (maize); assay: as above
[8] = target: maize leaf ferredoxin-NADP+ reductase, wild-type (maize); assay: as above
[9] = target: maize leaf ferredoxin-NADP+ reductase R235Q (maize); assay: ITC; 500 uM Fd I in the syringe titrated into 50 uM L-FNR in the cell; 50 mM Tris/HCl pH 7.5, no NaCl, 298 K; one set of independent binding sites; 500 uM NADP+
[10] = target: maize leaf ferredoxin-NADP+ reductase R244Q (maize); assay: as above
[11] = target: maize leaf ferredoxin-NADP+ reductase Y314S (maize); assay: as above
[12] = target: maize leaf ferredoxin-NADP+ reductase, wild-type (maize); assay: as above
[13] = target: maize leaf ferredoxin-NADP+ reductase R235Q (maize); assay: ITC; 500 uM Fd I in the syringe titrated into 50 uM L-FNR in the cell; 50 mM Tris/HCl pH 7.5, no NaCl, 298 K; one set of independent binding sites; 50 uM NADP+
[14] = target: maize leaf ferredoxin-NADP+ reductase R244Q (maize); assay: as above
[15] = target: maize leaf ferredoxin-NADP+ reductase Y314S (maize); assay: as above
[16] = target: maize leaf ferredoxin-NADP+ reductase, wild-type (maize); assay: as above
[17] = substrate: NC(=O)C1=CN([C@@H]2O[C@H](COP(=O)(O)OP(=O)(O)OC[C@H]3O[C@@H](n4cnc5c(N)ncnc54)[C@H](OP(=O)(O)O)[C@@H]3O)[C@@H](O)[C@H]2O)C=CC1; assay: NADPH-dependent diaphorase assay; assay type: biochemical, Zea mays; details: DCPIP as electron acceptor
From the text: NADPH-dependent diaphorase assay on maize leaf FNR (L‐FNR)

Q: `NC(=O)c1ccc[n+]([C@@H]2O[C@H](COP(=O)(O)OP(=O)(O)OC[C@H]3O[C@@H](n4cnc5c(N)ncnc54)[C@H](OP(=O)(O)O)[C@@H]3O)[C@@H](O)[C@H]2O)c1` [NADP^+] was tested. Which “ITC of Fd I binding to FNR in presence of ligand; Fd-affinity chromatography” value (maize leaf FNR (L‐FNR)) did it give?
A: The resulting dissociation constant (K d) increased by addition of NADP^+ into the titration reaction

Q: Which Km for Fd in NADPH-dependent cyt c reduction, at 50 uM, 250 uM, 500 uM and 1 mM NADPH (0.30 to 5.0 uM) [1] does the source give for “maize leaf ferredoxin I (from UniProt P27787 53-150) (natural protein)” here?
A: 5 µM

Q: What about the Km for Fd in NADPH-dependent cyt c reduction, at 50 uM, 250 uM, 500 uM and 1 mM NADPH (0.75 to 6.9 uM) [2] of the same molecule?
A: 6.9 µM

Q: What about the Km for Fd in NADPH-dependent cyt c reduction, at 50 uM, 250 uM and 500 uM NADPH (17, 13, 18 uM; not determined at 1 mM) [3] of the same molecule?
A: 18 µM

Q: What about the apparent Km for Fd in NADPH-dependent cyt c reduction, at 50 uM, 250 uM, 500 uM and 1 mM NADPH (3.5 to 44 uM) [4] of the same molecule?
A: 44 µM

Q: What about the Kd [5] of the same molecule?
A: 870 nM

Q: What about the dH [5] of the same molecule?
A: 8.3 kcal/mol

Q: What about the stoichiometry N [5] of the same molecule?
A: 0.7

Q: And the Kd [6]?
A: 760 nM

Q: What about the dH [6] of the same molecule?
A: 8.3 kcal/mol

Q: And the stoichiometry N [6]?
A: 0.7

Q: And the Kd [7]?
A: 2200 nM

Q: And the dH [7]?
A: 5.6 kcal/mol

Q: What about the stoichiometry N [7] of the same molecule?
A: 0.7

Q: What about the Kd [8] of the same molecule?
A: 1200 nM

Q: And the dH [8]?
A: 9.8 kcal/mol

Q: What about the stoichiometry N [8] of the same molecule?
A: 0.7

Q: What about the Kd [9] of the same molecule?
A: 1300 nM

Q: And the dH [9]?
A: 6.3 kcal/mol

Q: What about the stoichiometry N [9] of the same molecule?
A: 0.9

Q: What about the Kd [10] of the same molecule?
A: 1100 nM

Q: And the dH [10]?
A: 5.8 kcal/mol

Q: And the stoichiometry N [10]?
A: 1

Q: And the Kd [11]?
A: 2300 nM

Q: And the dH [11]?
A: 3.6 kcal/mol

Q: And the stoichiometry N [11]?
A: 0.7

Q: What about the Kd [12] of the same molecule?
A: 3700 nM

Q: And the dH [12]?
A: 6.7 kcal/mol

Q: What about the stoichiometry N [12] of the same molecule?
A: 0.8

Q: And the Kd [13]?
A: 780 nM

Q: And the dH [13]?
A: 7.3 kcal/mol

Q: What about the stoichiometry N [13] of the same molecule?
A: 0.7

Q: What about the Kd [14] of the same molecule?
A: 790 nM

Q: What about the dH [14] of the same molecule?
A: 7.4 kcal/mol

Q: And the stoichiometry N [14]?
A: 0.8

Q: And the Kd [15]?
A: 2600 nM

Q: And the dH [15]?
A: 4.3 kcal/mol

Q: What about the stoichiometry N [15] of the same molecule?
A: 0.7

Q: And the Kd [16]?
A: 1600 nM

Q: And the dH [16]?
A: 8.8 kcal/mol

Q: What about the stoichiometry N [16] of the same molecule?
A: 0.7

B1: maize leaf FNR (L‐FNR) (Zea mays) (protein)
chain: T1 sequence (Q9SLP6 42-355)
notes: recombinant mature leaf FNR, FAD flavoprotein, C-terminal Tyr314
Q: Which results are given for B1?
A: Km [17]: 46 ± 3 µM; kcat [17]: 76 ± 14 s⁻¹

B2: maize leaf FNR (L‐FNR) (Zea mays; Y355S) (protein)
chain: T1 sequence (Q9SLP6 42-355) with Y314S
notes: as for B1
Q: B2 was tested. Which Km [17] did it give?
A: 0.27 ± 0.08 µM

Q: And the kcat [17]?
A: 41 ± 6 s⁻¹

B3: maize leaf FNR (L‐FNR) (Zea mays; R276Q) (protein)
chain: T1 sequence (Q9SLP6 42-355) with R235Q
notes: as for B1
Q: With B3 as the molecule, how does the Km [17] read?
A: 500 ± 120 µM

Q: And the kcat [17]?
A: 60 ± 7 s⁻¹

B4: maize leaf FNR (L‐FNR) (Zea mays; R285Q) (protein)
chain: T1 sequence (Q9SLP6 42-355) with R244Q
notes: as for B1
Q: What does the source list for B4?
A: Km [17]: 310 ± 60 µM; kcat [17]: 139 ± 13 s⁻¹
